The values that follow come from the DeepSol protein solubility set.

The series is described as follows: soluble on expression in E. coli; label from the status in PepcDB or PDB records.
Turning to “MATEAVYGSWDSPITPDLFGKCNCKSICEMQVVGGNVYWIEQNSVTGKRELYSKPTNGDTRTRWADGQSVQTAIHEYGGGALHVLADGSVLFATIEGVFYQKSADSGVEQLAEGNNRMFRFSDFSATDTHVFCVNETHQADAKFPENRLISIDRATKNQNVIAHGADFYAYPRVSPDGKKLVWMQWSLPNMPWDETSIRMADLKGGESSNEVTLKDGTGKQINYSEPTWDGDELLTVNDSTNWWNVYKSAAEPNSVEKNLNPIQREISYPLWQLGFRNYVLNKKYLVMNADGILYVRSGDVTVEIPTPGYTVFGYLSLDQNGSDLFAIASGPKRASSVISIDLANKNFPLKVHRESRDSSEIDALEISEPEEFVFKSDGVDVSAGTLPPVLLLGHGGPTAPAQNNLDLKKQFFTSRGIAVFDVNYRGSTGFGTEFRRMLYKNCGVADRDDMLNGAKALVEQGKVDAEKVLITGSSSGGYLILSCLISPKNIIKAAVSVYGVADLLALDEDTHKLERCYNEMLIGKYPEQASIYEERSPIYHIDKIRTPIAFLHGREDTVVPMSQSITMYEKIRASGVTTALMLFDGEGHGFRNGQVIKESTEATFYFLMKAVGIEPSISSKIEIVNPKH”, the “soluble on expression in E. coli” value is given as “not soluble”.

Regarding “MATGGLAIIQSMKHKLPPSERKLADYILAHPHKAIESTVNEISALANSSDAAVIRLCKSLGLKGFQDLKMRVAGDLAKPTFQGYRDIVPHEPLPSISEKTAGNAIQAI”, the “soluble on expression in E. coli” value is given as “soluble”.

With “MATLTEDDVLEQLDAQDNLFSFMKTAHSILLQGIRQFLPSLFVDNDEEIVEYAVKPLLAQSGPLDDIDVALRLIYALGKMDKWLYADITHFSQYWHYLNEQDETPGFADDITWDFISNVNSITRNATLYDALKAMKFADFAVWSEARFSGMVKTALTLAVTTTLKELTP”, the “soluble on expression in E. coli” value was “soluble”.

On to “MATNRSRRLRKKLCVDEFQELGFELNFHYKEGVDADAVNAFMLRFIDQAIEANELTYGGCDEFGFVCLARRGSVNEEQRALIEAWLKQQPELASVEVGALVDAWYPEQPVLPKL”, for which the “soluble on expression in E. coli” value is recorded as “not soluble”.

For the sequence “MATPAFVKRITRSDAVLSLGVNFSKIYFKFVMWTGRYDRQAVPIPEPYILAMWHGRLIMAPMLQTKSKPLVALISGHRDGKIISRVGAAFGIQTAVGSSSKGGMRAAREMMRLGKSGHSLFVTPDGPRGPRMRINSEGVLDMARLTGLPILPVSVSLSRHKLLRSWDRLMLPGLFAKVAIRFGEPITVEAGSPTAEMAERLQAALTAAQNETDRIVGLQPVETALEHHHHHH”, the “soluble on expression in E. coli” value is given as “soluble”.

Turning to “MATPSTGANNSIPAVRNQVEVQVGLVGDAQVGKTSLMVKYVQNIYDKEYTQTLGVNFLKRKVSIRSTDIIFSIMDLGGQREFINMLPIATVGSSVIIFLFDLTRPETLSSIKEWYRQAYGLNDSAIPILVGTKYDLLIDLDPEYQEQISRTSMKYAQVMNAPLIFCSTAKSINIQKIFKIALAKIFNLTLTIPEINEIGDPLLIYKHLGGQQHRHHNKSQDRKSHNIRKPSSSPSSKAPSPGVNT”, the “soluble on expression in E. coli” value was “soluble”.

For the sequence “MATSKLQALWNHPAGPKTIHFWAPTFKWGISIANIADFQKPPENISYLQQIAVTCTGMIWCRCSTIITPKNWNLFSVNVAMAATGIYQLTRKIKYDYVSEAEAAVEIEG”, the “soluble on expression in E. coli” value is “not soluble”.

“MATSMTDIKGFNMISIEQEKELGNKFAVEIEKQQQPVNDPEVQRYVDKVGKRLLSGARAVEFDYVFKVVKDDSVNAFAIPGGRVYVHTGLLKAADNETELAGVLAHEINHAVARHGTRQMTQEYGYSLVLSLVLGDNPNMLAQLAGQLFGKAGMMSYSREYENQADFLGVETMYKAGYNPNGLTSFFQKLNAMDGGTQSNVARFFSTHPLTSERIQRVQAEIAKLPPQRYLTDETEFKKIKGRLKLEHHHHHH”: the “soluble on expression in E. coli” value is listed as “soluble”.

On to “MATVIHNPLKALGDQFYKEAIEHCRSYNSRLSAERSVRLPFLDSQTGVAQNNCYIWMEKRHRGPGLAPGQLYTYPARCWRKKRRLHPPEDPKLRLLEIKPEVELPLKKDGFTSESTTLEALLRGEGVEKKVDAREEESIQEIQRVLENDENVEEGNEEEDLEEDIPKRKDRTRGRARCPLPSLHCFSSLPSAVIDAKEWGGGGKWEATVAYRKKKIYPVHIFNMLEHHHHHH”, for which the “soluble on expression in E. coli” value is given as “not soluble”.

As to “MAVELRYDEEAVFLRRVNRFVVEVKSSRGVVRCHLMDTGRIDHLASPGRRGVLIAWLNRLGGKTVCRAQAFKTAGGVVAVVDSRVPNRLFAEAAPMVVGGDASIEAEREVFGSRLDFLISTGRGLWAVEVKGVNLSLDGVGLFPNAPSARAVKHLEVLARLAREGVKPLMAFVALRPDIRVFAPNYRVDRRFASLACTLLRRGLVGMVGIRVSIDLEPGVVRIRPVATAPVQCPPLQPGR”, the “soluble on expression in E. coli” value was “soluble”.

Consider “MAVKEATSETKKRSGYEIITLTSWLLQQEQKGIIDAELTIVLSSISMACKQIASLVQRANISNLTGTQGAVNIQGEDQKKLDVISNEVFSNCLRSSGRTGIIASEEEDVPVAVEESYSGNYIVVFDPLDGSSNLDAAVSTGSIFGIYSPNDECLPDFGDDSDDNTLGTEEQRCIVNVCQPGSNLLAAGYCMYSSSVIFVLTIGKGVFVFTLDPLYGEFVLTQENLQIPKSGKIYSFNEGNYKLWDENLKKYIDDLKEPGPSGKPYSARYIGSLVGDFHRTLLYGGIYGYPRDKKSKNGKLRLLYECAPMSFIVEQAGGKGSDGHQRVLDIQPTEIHQRVPLYIGSTEEVEKVEKYLA”, for which the “soluble on expression in E. coli” value is given as “soluble”.

Take “MAVKHKSESLKHEEGAAKKAKTGLLKLKKIMDIESNVVKYSICIPTTVIDNCNNLEQVTFTAYQIARTAVLFNVQEIIVLDQSKDKKHEKKSRSKETISDCLLLATLLQYFVTPPNLLDTTFKKKNKLYLKCASTFPPLNQLPFMNASAEQHYKEGLSIARDSSKGKSDDALTNLVYIGKNQIITLSNQNIPNTARVTVDTERKEVVSPIDAYKGKPLGYHVRMASTLNEVSEGYTKIVWVNSGDFHYDEELSKYHKVETKLPYIAKLKKSSTSEKPCNILLIFGKWGHLKRCFRRSDLESSSLHHYFSGQLQFPASVPQGNIPIQDSLPIALTMFQRWAS”: the “soluble on expression in E. coli” value is listed as “soluble”.

Regarding “MAVMIVGGGMAGATLALAISRLSQGTIPVDLIEAYSPLDKEHPGFDARALALSDGTRQQLAALGIWQAMSGNATAITDIHVSERGHASVVNLHAADYHVQALGHVVELHDVGQRLFSLLQQAPGVRLHCPAKVVAVTRTQENATLTLDNGTALTGQLLVAADGSHSMLSQSCGIHWQQHEYDQVAVIANVTTGEPHRGRAFERFTPHGPLALLPMSNGRSSLVWCHDKHRQHDVDGWSETEFRQQLQLAFGWRLGQFTHIGERHSYPLRLLTASQHTSHRLALVGNAAQTLHPIAGQGFNLGIRDVMSLAETLVEAVKNQQDIGQYSVLSRYQQRREPDQHTTVAITDGLVRLFANRYTALAVGRNLGLIAMNNLPLMRDAFARRTLGWVERLEHHHHHH”, the “soluble on expression in E. coli” value is reported as “not soluble”.

On to “MAVPPAYADLGKSAKDIFNKGYGFGMVKLDVKTKSASGVEFKTSGSSNTDTSKVVGSLETKYKRSEYGLTFTEKWNTDNTLGTEINIEDQIAKGLKLTFDTTFSPNTGKKSGKVKTAYKREFVNLGCDVDFDFAGPTIHGAAVVGYEGWLAGYQMSFDTAKSKMTQNNFAVGYKTGDFQLHTNVNDGSEFGGSIYQKVSDKLETAVNLAWTAGSNSTRFGIAAKYQLDKDASISAKVNNTSLVGVGYTQSLRPGIKLTLSALVDGKSINSGGHKLGLGLELEA”, for which the “soluble on expression in E. coli” value is given as “not soluble”.

Consider “MAVQYKSTTTEHKFKHLSVYERGQIAALLKEGKSQRYIANKLGRSPSTISREIKRGTTMQMRTDLSTYKVYFPETGQAVYEKNRMNCGAKRKLAQVEDFLKFAEDKILREKWSPDAVVGLCRRDPKWQNSTIVCTKTLYNYIDLGLIKVRNIDLNLKLRLKS”, for which the “soluble on expression in E. coli” value is recorded as “soluble”.

For the sequence “MAVSDSQNSQTCLDPDASRSVLGIILGGGAGTRLYPLTKKRAKPAVPLGANYRLIDIPVSNCLNSNISKIYVLTQFNSASLNRHLSRAYASNMGGYKNEGFVEVLAAQQSPENPDWFQGTADAVRQYLWLFEEHTVLEYLILAGDHLYRMDYEKFIQAHRETDADITVAALPMDEKRATAFGLMKIDEEGRIIEFAEKPQGEQLQAMKVDTTILGLDDKRAKEMPFIASMGIYVISKDVMLNLLRDKFPGANDFGSEVIPGATSLGMRVQAYLYDGYWEDIGTIEAFYNANLGITKKPVPDFSFYDRSAPIYTQPRYLPPSKMLDADVTDSVIGEGCVIKNCKIHHSVVGLRSCISEGAIIEDSLLMGADYYETDADRKLLAAKGSVPIGIGKNCHIKRAIIDKNARIGDNVKIINKDNVQEAARETDGYFIKSGIVTVIKDALIPSGIII”, the “soluble on expression in E. coli” value is “soluble”.

As to “MAVTKELLQMDLYALLGIEEKAADKEVKKAYRQKALSCHPDKNPDNPRAAELFHQLSQALEVLTDAAARAAYDKVRKAKKQAAERTQKLDEKRKKVKLDLEARERQAQAQESEEEEESRSTRTLEQEIERLREEGSRQLEEQQRLIREQIRQERDQRLRGKAENTEGQGTPKLKLKWKCKKEDESKGGYSKDVLLRLLQKYGEVLNLVLSSKKPGTAVVEFATVKAAELAVQNEVGLVDNPLKISWLEGQPQDAVGRSHSGLSKGSVLSERDYESLVMMRMRQAAERQQLIARMQQEDQEGPPT”, the “soluble on expression in E. coli” value was “soluble”.

For “MAVTTTSESAAEFKEKNVSPVKVEFINAPEKDPGLNVEWQIQGTGYNNEGSGSVIYVRMKNLNDVAIPADAFDDPVLTINGTEASRVEAGTVDLDLPLGPGATTNLQFAFGTGYGSLSDAKLVLGNCIFEGNLSNI”, the “soluble on expression in E. coli” value is “not soluble”.

Turning to “MAVVPIRIVGDPVLHTATTPVTVAADGSLPADLAQLIATMYDTMDAANGVGLAANQIGCSLRLFVYDCAADRAMTARRRGVVINPVLETSEIPETMPDPDTDDEGCLSVPGESFPTGRAKWARVTGLDADGSPVSIEGTGLFARMLQHETGHLDGFLYLDRLIGRYARNAKRAVKSHGWGVPGLSWLPGEDPDPFGH”, the “soluble on expression in E. coli” value is listed as “soluble”.

On to “MAWGGLCNPPLCFGFSGCDMNVREYYEHALAERGYQPDEAQLQAVERLQRYYDEWVRFKALRSNALKKLLNRPDVPRGVYLWGGVGRGKSFLMDAFYATVPVVRKTRLHFHEFMRGVHRELEEVKGTQDPLDEVARRLARRYRLICFDEFHVSDVADAMILYRLLLKLFEHGTSFVMTSNYEPSTLYPDGLHRDRILPAIALIQGRMDVLNVDAGIDYRRRSLEQVQCYHTPLDAQARQALEHAFAQLSDTAPQDPVLHIEHREIRAQALAGSVVWFDFATLCGGPRSQNDYLELANRFHAVILSDVPRMGPRQASEARRFTWLIDVFYDHKVKLIMSAEVEPEQLYTEGALANEFHRTVSRILEMQSREYLEAERRLAVTLAAALEHHHHHH”, for which the “soluble on expression in E. coli” value is recorded as “not soluble”.
